Conditions: Escherichia coli (strain K12), Thermal, DSC, NaCl 100 mM, reversible: yes(>85%)
[1] = pH 5.5, Sodium cacodylate 10 mM

Chain of Cold shock protein CspA wild type, P0A9X9 (P0A9X9 whole entry): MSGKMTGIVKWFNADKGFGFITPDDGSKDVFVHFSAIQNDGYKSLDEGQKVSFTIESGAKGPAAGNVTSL

Cold shock protein CspA wild type, P0A9X9
Tm (pH 4, Sodium acetate 10 mM): 33.2 °C
unfolding enthalpy (calorimetric) (pH 4, Sodium acetate 10 mM): 22.7 kcal/mol
Tm (pH 4.5, Sodium acetate 10 mM): 42.1 °C
unfolding enthalpy (calorimetric) (pH 4.5, Sodium acetate 10 mM): 28.9 kcal/mol
Tm (pH 5, Sodium acetate 10 mM): 47.7 °C
unfolding enthalpy (calorimetric) (pH 5, Sodium acetate 10 mM): 33 kcal/mol
Tm [1]: 54.4 °C
unfolding enthalpy (calorimetric) [1]: 39.9 kcal/mol
Tm (pH 6, MOPS 10 mM): 54.1 °C
unfolding enthalpy (calorimetric) (pH 6, MOPS 10 mM): 39.9 kcal/mol
Tm (pH 6, PIPES 10 mM): 53.1 °C
unfolding enthalpy (calorimetric) (pH 6, PIPES 10 mM): 36.1 kcal/mol
Tm (pH 6, Sodium cacodylate 10 mM): 56.5 °C
unfolding enthalpy (calorimetric) (pH 6, Sodium cacodylate 10 mM): 44.9 kcal/mol
Tm (pH 6, Sodium phosphate 10 mM): 55.9 °C
unfolding enthalpy (calorimetric) (pH 6, Sodium phosphate 10 mM): 39.4 kcal/mol
Tm (pH 6.5, HEPES 10 mM): 56.5 °C
unfolding enthalpy (calorimetric) (pH 6.5, HEPES 10 mM): 43.5 kcal/mol
Tm (pH 6.5, MOPS 10 mM): 56.1 °C
unfolding enthalpy (calorimetric) (pH 6.5, MOPS 10 mM): 39.9 kcal/mol
Tm (pH 6.5, PIPES 10 mM): 55.2 °C
unfolding enthalpy (calorimetric) (pH 6.5, PIPES 10 mM): 41.4 kcal/mol
Tm (pH 6.5, Sodium citrate 10 mM): 56.8 °C
unfolding enthalpy (calorimetric) (pH 6.5, Sodium citrate 10 mM): 45.2 kcal/mol
Tm (pH 6.5, Sodium phosphate 10 mM): 56.1 °C
unfolding enthalpy (calorimetric) (pH 6.5, Sodium phosphate 10 mM): 43.3 kcal/mol
Tm (pH 6.5, imidazole 10 mM): 53.7 °C
unfolding enthalpy (calorimetric) (pH 6.5, imidazole 10 mM): 39.2 kcal/mol
Tm (pH 7, HEPES 10 mM): 57.6 °C
unfolding enthalpy (calorimetric) (pH 7, HEPES 10 mM): 47.6 kcal/mol
Tm (pH 7, MOPS 10 mM): 56.4 °C
unfolding enthalpy (calorimetric) (pH 7, MOPS 10 mM): 40.6 kcal/mol
Tm (pH 7, PIPES 10 mM): 55.7 °C
unfolding enthalpy (calorimetric) (pH 7, PIPES 10 mM): 41.4 kcal/mol
Tm (pH 7, Sodium cacodylate 10 mM): 57 °C
unfolding enthalpy (calorimetric) (pH 7, Sodium cacodylate 10 mM): 47.3 kcal/mol
Tm (pH 7, Sodium citrate 10 mM): 57 °C
unfolding enthalpy (calorimetric) (pH 7, Sodium citrate 10 mM): 46.4 kcal/mol
Tm (pH 7, Sodium phosphate 10 mM): 57 °C
unfolding enthalpy (calorimetric) (pH 7, Sodium phosphate 10 mM): 43.3 kcal/mol
Tm (pH 7, imidazole 10 mM): 55.8 °C
unfolding enthalpy (calorimetric) (pH 7, imidazole 10 mM): 40.1 kcal/mol
Tm (pH 7.5, HEPES 10 mM): 57.8 °C
unfolding enthalpy (calorimetric) (pH 7.5, HEPES 10 mM): 49 kcal/mol
Tm (pH 7.5, MOPS 10 mM): 56.2 °C
unfolding enthalpy (calorimetric) (pH 7.5, MOPS 10 mM): 41.4 kcal/mol
Tm (pH 7.5, PIPES 10 mM): 56 °C
unfolding enthalpy (calorimetric) (pH 7.5, PIPES 10 mM): 42.3 kcal/mol
Tm (pH 7.5, Sodium citrate 10 mM): 57.3 °C
unfolding enthalpy (calorimetric) (pH 7.5, Sodium citrate 10 mM): 48.3 kcal/mol
Tm (pH 7.5, Sodium phosphate 10 mM): 57.1 °C
unfolding enthalpy (calorimetric) (pH 7.5, Sodium phosphate 10 mM): 46.9 kcal/mol
Tm (pH 7.5, imidazole 10 mM): 55.9 °C
unfolding enthalpy (calorimetric) (pH 7.5, imidazole 10 mM): 39 kcal/mol
Tm (pH 8, MOPS 10 mM): 57.1 °C
unfolding enthalpy (calorimetric) (pH 8, MOPS 10 mM): 42.5 kcal/mol
Tm (pH 8, imidazole 10 mM): 56.8 °C
unfolding enthalpy (calorimetric) (pH 8, imidazole 10 mM): 38.2 kcal/mol
Tm (pH 8.5, HEPES 10 mM): 56.5 °C
unfolding enthalpy (calorimetric) (pH 8.5, HEPES 10 mM): 42.1 kcal/mol
Tm (pH 8.5, Sodium borate 10 mM): 57.7 °C
unfolding enthalpy (calorimetric) (pH 8.5, Sodium borate 10 mM): 44.5 kcal/mol
Tm (pH 8.7, Sodium borate 10 mM): 57.6 °C
unfolding enthalpy (calorimetric) (pH 8.7, Sodium borate 10 mM): 43.7 kcal/mol

Source: FireProtDB (doi:10.1110/ps.9.2.387)
